According to US20190338028A1 (PROMAB BIOTECHNOLOGIES, published 2019):

Target: T1, CD47 on human cancer cells and in human tumor and normal tissue samples (human, UniProt Q08722 19-323)
T1 construct: whole, on cells; also called CD47 antigen; CD47 tumor antigen
Experiment: IHC staining of tumor and normal tissue samples

binding result: binds
B1: humanized CD47 ScFv fused in frame with C-terminal human Fc (scFv)
scFv: EVQLVESGGGLVQPGGSLRLSCAASGFTFSGYGMSWVRQAPGKGLEWVATITSGGTYTYYPDSVKGRFTISRDNAKNSLYLQMNSLRAEDTAVYYCARSLAGNAMDYWGQGTLVTVSSGGGGSGGGGSGGGGSEIVLTQSPATLSLSPGERATLSCRASQSISDYLHWYQQKPGQAPRLLIYFASQRATGIPARFSGSGSGTDFTLTISSLEPEDFAVYYCQQGHGFPRTFGGGTKVEIK
notes: also called humanized anti-CD47 scFv; not shown: C-terminal human Fc from pYD11 vector
